No end group written: not given here.
Columns and labels:
[1] = test system: whole rat hearts; assay: Ex vivo Langendorff perfused whole hearts, peptide before 30 min global ischemia, creatine phosphokinase release
Excerpt: In another study performed in support of the invention, the δPKC selective inhibitor peptide, δV1-1, or the activator peptide, ψδRACK, were delivered to whole hearts ex vivo to determine if the peptides have activity when introduced extracellulary to a whole organ. As described in Example 3, δV1-1 and ψδRACK peptides were conjugated to a carrier peptide, a Tat-derived peptide. The peptides were delivered into Langendorff perfused rat hearts prior to induction of an ischemic period. After perfusion with the peptides, global ischemia was effected for 30 minutes. After the 30 minute ischemic period, the amount of creatine phosphokinase (CPK) released was monitored during a 30 minute reperfusion period.
Adult, male rats were anesthetized with i.p. avertin, and their hearts were rapidly removed and cannulated via the aorta for perfusion as described in the art (Colbert, M. C. et al.) using Langendorff set-up. Care was taken to have the hearts perfused within 90 seconds of removal. The hearts were perfused with oxygenated Krebs-Henseleit solution comprised of, in […], NaCl 120; KCl 5.8; NaHCO3 25; NaH2O4 1.2; MgSO4 1.2; CaCl2 1.0; and dextrose 10, pH 7.4 at 37 C.
After a 10-20 minute equilibration period, the hearts were perfused with δV1-1 peptide (SEQ ID NO:4) or with ψδRACK peptide (SEQ ID NO:6), prepared as described in Example 1 but conjugated to a Tat-derived peptide (Tat 47-57, SEQ ID NO:9), for 20 minutes. Perfusion was maintained at a constant flow of 10 mL/min with Krebs-Hanseleit solution containing 0.5 μM of the appropriate peptide. The Langendorff method employed used retrograde flow from the […] and into the coronary arteries, bypassing the pulmonary arteries.
To induce global ischemia, flow was interrupted for 30 minutes. After the ischemic event, the hearts were re-perfused for 30-60 minutes. During reperfusion, ischemia-induced cell damage was determined by measuring the activity of creatine phosphokinase (CPK) (absorbance at 520 nm) in the perfusate using a Sigma kit. […]

[2] = target: T1, αPKC (Rattus norvegicus, UniProt P05696); assay: Translocation of αPKC in primary cardiac myocytes (Western blot); type: cell-based; details: data not shown
T1 construct: blots probed with anti-δPKC, anti-αPKC and anti-εPKC antibodies; endogenous in cells; host or cells: primary neonatal rat cardiac myocytes
Protocol: As described in Example 1, the δV1-1 and ψδRACK peptides were analyzed to determine whether the peptides had activity, and if so, whether the activity was as an agonist or an antagonist of δPKC. As will be shown, δV1-1, δV1-2 and δV1-5 are δPKC antagonists and ψδRACK is a δPKC agonist. In these studies, the δV1-1 and ψδRACK peptides were modified with a carrier peptide by cross-linking via an N-terminal Cys-Cys bond to the Drosophila Antennapedia homeodomain (SEQ ID NO:8; Théodore, L., et al.; Johnson, J. A. et al., 1996b). […] Translocation of δPKC isozyme was assessed by Western blot analysis cystosolic and particulate fractions of treated cells. Subcellular localization of δPKC isozyme was assessed by immunofluorescence by probing the blot with […], and anti-εPKC antibodies. Translocation was expressed as the amount of isozyme in the particulate fraction over the amount of isozyme in non-treated cells. […]
Translocation of δPKC isozyme was assessed by using δPKC isozyme-specific antibodies in Western blot analysis (Santa Cruz Biotechnology). […] Subcellular localization of dPKC isozymes was assessed by chemiluminescence of blots probed with anti-δPKC, anti-αPKC and anti-εPKC antibodies. […] Changes in translocation of δPKC isozyme were also determined by immunofluoresence study of treated and fixed cells (Gray et al., 1997). […]

[3] = target: T2, δPKC (Rattus norvegicus, UniProt P09215); assay: Translocation of δPKC in primary cardiac myocytes (Western blot of soluble and particulate fractions); type: cell-based
T2 construct: endogenous in cells; host or cells: primary neonatal rat cardiac myocytes
T2 sequence (P09215 whole entry): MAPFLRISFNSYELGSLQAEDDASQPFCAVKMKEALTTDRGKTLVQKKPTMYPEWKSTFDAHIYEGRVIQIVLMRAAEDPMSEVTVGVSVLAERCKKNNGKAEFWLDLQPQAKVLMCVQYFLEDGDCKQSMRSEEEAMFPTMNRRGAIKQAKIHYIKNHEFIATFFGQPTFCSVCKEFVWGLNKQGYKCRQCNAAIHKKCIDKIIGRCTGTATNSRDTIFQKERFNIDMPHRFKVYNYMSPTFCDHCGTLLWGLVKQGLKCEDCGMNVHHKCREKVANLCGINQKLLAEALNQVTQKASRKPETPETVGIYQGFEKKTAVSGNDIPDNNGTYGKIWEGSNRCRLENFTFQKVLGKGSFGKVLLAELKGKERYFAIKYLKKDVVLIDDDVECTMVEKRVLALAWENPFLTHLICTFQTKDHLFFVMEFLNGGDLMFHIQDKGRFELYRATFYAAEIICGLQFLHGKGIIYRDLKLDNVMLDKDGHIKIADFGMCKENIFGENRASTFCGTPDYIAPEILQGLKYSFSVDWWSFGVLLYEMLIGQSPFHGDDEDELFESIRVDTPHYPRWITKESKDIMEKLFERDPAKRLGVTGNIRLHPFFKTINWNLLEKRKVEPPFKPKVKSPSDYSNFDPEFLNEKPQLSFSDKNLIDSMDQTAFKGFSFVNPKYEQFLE
Protocol: As described in Example 1, the δV1-1 and ψδRACK peptides were analyzed to determine whether the peptides had activity, and if so, whether the activity was as an agonist or an antagonist of δPKC. As will be shown, δV1-1, δV1-2 and δV1-5 are δPKC antagonists and ψδRACK is a δPKC agonist. In these studies, the δV1-1 and ψδRACK peptides were modified with a carrier peptide by cross-linking via an N-terminal Cys-Cys bond to the Drosophila Antennapedia homeodomain (SEQ ID NO:8; Théodore, L., et al.; Johnson, J. A. et al., 1996b). In other studies, not described here, the peptide was modified with Tat (SEQ ID NO:9) or with polyarginine (Mitchell et al., 2000; Rothbard et al., 2000) and gave results similar to those described herein. Details of the study are set forth in Example 1. In brief, the Antennapedia-conjugated peptides were introduced to cardiac cells at a concentration of 500 nM in the presence and absence of phorbol 12-myristate 13-acetate (PMA) or in the presence of each other. Translocation of δPKC isozyme was assessed by Western blot analysis cystosolic and particulate fractions of treated cells. Subcellular localization of δPKC isozyme was assessed by immunofluorescence by probing the blot with […], and anti-εPKC antibodies. Translocation was expressed as the amount of isozyme in the particulate fraction over the amount of isozyme in non-treated cells.
Primary cardiac myocyte cell cultures (90-95% pure) were prepared from newborn rats (Gray, M. O. et al.; Disatnik M.-H. et al.). The peptides δV1-1 and ψδRACK were introduced into cells at an applied concentration of 500 nM in the presence and absence of phorbol 12-myristate 13-acetate (PMA) at concentrations of 3 nm and 10 nm, respectively, for 10-20 minutes. In a third set of cells, the peptide δV1-1 was applied at a concentration of 500 nM in the presence and absence of 500 nM ψδRACK.
Translocation of δPKC isozyme was assessed by using δPKC isozyme-specific antibodies in Western blot analysis (Santa Cruz Biotechnology). Western blot analysis of cystosolic and particulate fractions of treated cells was carried out as described by Johnson et al., 1995. Subcellular localization of dPKC isozymes was assessed by chemiluminescence of blots probed with anti-δPKC, anti-αPKC and anti-εPKC antibodies. Amounts of PKC isozymes in each fraction was quantitated using a scanner and translocation is expressed as the amount of isozymes in the particulate fraction over the amount of isozymes in non-treated cells. Changes in translocation of δPKC isozyme were also determined by immunofluoresence study of treated and fixed cells (Gray et al., 1997). Translocation was determined by counting over 100 cells/treatment in a blinded fashion. The results are shown in FIG. 2A-2B, FIGS. 3A-3B and FIGS. 4A-4B.

[4] = 0.5 μM Tat-conjugated peptide for 20 minutes before 30 minute global ischemia

translocation of αPKC [2] | δPKC translocation induced by the peptide ([3]; 500 nM Antennapedia-conjugated peptide, cardiac myocytes) | effect on the δV1-1 inhibition of basal δPKC partitioning ([3]; 500 nM ψδRACK together with 500 nM δV1-1) | release of creatine kinase ([1]; 0.5 μM Tat-conjugated peptide before 30 minute global ischemia, reperfusion period) | PMA-induced δPKC translocation ([3]; 500 nM Antennapedia-conjugated peptide, with PMA, 10-20 minutes, newborn rat cardiac myocytes) | basal partitioning of δPKC in the particulate fraction ([3]; 500 nM δV1-1, no ψδRACK) | Sequence | enhancement of cardiac damage induced by ischemia (CPK release) [1, 4] | protection against ischemic damage in an intact heart [1, 4]
without affecting | selectively induced | reversed | – | – | – | MRAAEDPM (also: conjugated to Antennapedia or Tat carrier; listed as Rattus norvegicus) [ψδRACK, tested conjugated to Antennapedia or Tat carrier] | about 30% | –
did not inhibit | – | – | decreased | inhibited | inhibited | SFNSYELGSL (also: conjugated to Antennapedia or Tat carrier; listed as Rattus norvegicus) [δV1-1, tested conjugated to Antennapedia or Tat carrier] | – | greater than 50%

Source: US6855693B2, “Peptides for activation and inhibition of δPKC” (The Board of Trustees of the Leland Stanford Junior …, priority 2001, dated 2005)
